Data published in patent US6890900B2, “Methods for treating or preventing diseases of the oral cavity” (Campina B.V., priority 2001, dated 2005).

What was measured:
[1] = system: Actinobacillus haemophilus ATCC #43717; assay: LF/GMP assay, viable plate count (pour plate) of broth culture; type: cell-based; conditions: 35° C.; for Colony Counts: viable plate count
Method: (§1) Bacterial strains used in this study were Pseudomonas aeruginosa ATCC #27853, Streptococcus mutans ATCC #33535, Streptococcus pyogenes ATCC #19615, and Actinobacillus haemophilus ATCC #43717 and an oral swab from a healthy adult. Bacteria were grown on blood/BHT media (Brain Heart Infusion Agar with protease peptone, sodium chloride, glucose, di-sodium phosphate, and agar, Oxoid, Hampshire England, Sheep's Blood) in the presence of 5% CO2 at 35° C. […] One ml of the appropriate bacterial dilution was taken using a sterile pipette and introduced into 8 ml of sterilized BHI broth. […] By pipette, 9 ml of broth was placed into medium test tubes as means of a control and 8 ml test tubes were prepared for the concentration tests). […] This solution was filtered through a 0.45 μm filter. […] To study the kinetics of LF/GMP binding, each strain of bacteria was taken separately with a sterile pipette and placed into an 8 ml BHI broth test tube, vortexed, and incubated in the presence of 1 ml of LF or GMP for 18-24 hours at 35° C. with 5% CO2. In the combination procedure, 0.5 ml of both LF and […] were taken as 1 ml inoculations. One mL of each bacterial strain, plus one mL of sialic acid solution (1,000 ppm) were inoculated into test tubes filled with 8 mL of BHI broth. Each test tube was vortexed, incubated for 24 hours at 35° C. with 5% CO2, and then pour plated in BHI agar to obtain a plate count. This technique was used to determine the density of living (viable) cells in inoculated broth cultures. It involves plating a bacterial sample and counting the resulting colonies after incubation. A serial dilution of the original broth was taken prior to plating. The serial dilution is necessary to reduce the density of organisms in order to create countable plates. Only plates containing between 25 and 250 colonies are considered countable. Cell densities are traditionally recorded as CFU (colony forming unit)/ml. […] Formula: [formula] The assays required the use of a pour plate technique. The pour plate technique adds a step to the conventional serial dilution. The 1 ml of dilution is added to a warm emulsion of dilute nutrient (BHI) agar to produce an agar overlay in the petri plates. After incubation, the bacterial growth covers the entire plate but individual cellular movement has been restricted by the soft agar overlay. Each colony formed is assumed to have originated from a single CFU. The plates were gently mixed, inverted, and incubated for 18-24 hour at 35° C. Using a control (one broth tube inoculated with a bacterial strain, but no LF), the effectiveness of LF was examined. Each test tube containing a specified amount of LF (50, 100, 250, 500, 1,000 ppm and 3000 ppm) was diluted and plates were poured. […] A. haemophilus, S. mutans, S. pyrogenes and an oral culture were tested at 35° C. Pseudomonas aeruginosa was tested at both room temperature and 35° C. with 5% CO2. This was done because P. aeruginosa is not strictly an oral pathogen. It is commonly found in the environment in various conditions. It can be found in the environment and oral intake can cause inflammation in the oral cavity. Most normal oral bacteria are only found in the mouth and are not taken in from outside factors. Therefore, P. aeruginosa is a threat in both temperature settings. […] (see Table 2).

[2] = system: Streptococcus mutans ATCC #33535; assay: as above; type: cell-based; conditions: 35° C.; for Colony Counts: viable plate count
Method: as §1

[3] = Lactoferrin/GMP 250/0 ppm (LF alone)
[4] = Lactoferrin/GMP 3,000/0 ppm (LF alone)
[5] = Lactoferrin/GMP 3,000/0 ppm (LF alone), listed as Lactoferrin

B1: LF: Bovine lactoferrin, iron-binding glycoprotein purified from milk, provided by DMV International (protein, UniProt P24627 20-708, looked up)
Lactotransferrin: APRKNVRWCTISQPEWFKCRRWQWRMKKLGAPSITCVRRAFALECIRAIAEKKADAVTLDGGMVFEAGRDPYKLRPVAAEIYGTKESPQTHYYAVAVVKKGSNFQLDQLQGRKSCHTGLGRSAGWIIPMGILRPYLSWTESLEPLQGAVAKFFSASCVPCIDRQAYPNLCQLCKGEGENQCACSSREPYFGYSGAFKCLQDGAGDVAFVKETTVFENLPEKADRDQYELLCLNNSRAPVDAFKECHLAQVPSHAVVARSVDGKEDLIWKLLSKAQEKFGKNKSRSFQLFGSPPGQRDLLFKDSALGFLRIPSKVDSALYLGSRYLTTLKNLRETAEEVKARYTRVVWCAVGPEEQKKCQQWSQQSGQNVTCATASTTDDCIVLVLKGEADALNLDGGYIYTAGKCGLVPVLAENRKSSKHSSLDCVLRPTEGYLAVAVVKKANEGLTWNSLKDKKSCHTAVDRTAGWNIPMGLIVNQTGSCAFDEFFSQSCAPGADPKSRLCALCAGDDQGLDKCVPNSKEKYYGYTGAFRCLAEDVGDVAFVKNDTVWENTNGESTADWAKNLNREDFRLLCLDGTRKPVTEAQSCHLAVAPNHAVVSRSDRAAHVKQVLLHQQALFGKNGKNCPDKFCLFKSETKNLLFNDNTECLAKLGGRPTYEEYLGTEYVTAIANLKKCSTSPLLEACAFLTR
Colony Counts ([1]; 50 ppm, 24 h): 2.6 × 10^8
Colony Counts ([1]; 100 ppm, 24 h): 2.5 × 10^8
Colony Counts ([1]; 250 ppm, 24 h): 2.5 × 10^8
Colony Counts ([1]; 500 ppm, 24 h): 2.3 × 10^8
Colony Counts ([1]; 1,000 ppm, 24 h): 2.4 × 10^8
Colony Counts ([1]; 3,000 ppm, 24 h): 5.3 × 10^7
Total Log Reduction [1, 3]: 0 log
Total Log Reduction [1, 4]: one log
Total Log Reduction [1, 5]: 1 log
# Log Reductions ([1]; at the MIBC, vs control): 1 log
MIBC ([1]; single agent, 24 h, 5% CO2): 3,000 ppm
Colony Counts ([2]; 50 ppm, 24 h): 1.9 × 10^8
Colony Counts ([2]; 100 ppm, 24 h): 1.9 × 10^8
Colony Counts ([2]; 250 ppm, 24 h): 1.7 × 10^8
Colony Counts ([2]; 500 ppm, 24 h): 1.4 × 10^8
Colony Counts ([2]; 1,000 ppm, 24 h): 1.2 × 10^8
Colony Counts ([2]; 3,000 ppm, 24 h): 5.5 × 10^7
Total Log Reduction [2, 3]: 0 log
Total Log Reduction [2, 4]: one log
Total Log Reduction [2, 5]: 1 log
# Log Reductions ([2]; at the MIBC, vs control): 1 log
MIBC ([2]; single agent, 24 h, 5% CO2): 3,000 ppm
